Experiment [1] addresses KU (KU70/KU80 heterodimer) (human (endogenous in HeLa)) (UniProt P12956). Kind of experiment: SEC-MALS + other: SAXS.
In experiment [2] the target is DNA-PK assembly (KU-DNA-DNA-PKcs) (human (endogenous in HeLa)) (UniProt P78527). The experiment in a line: SEC-MALS + other: SAXS. On the technique in general: In gel filtration, larger molecules generally elute earlier.

Broadly, the stoichiometry N is a count of units in the complex or per binding partner. As for “KU (KU70/KU80 heterodimer) (from UniProt P12956 1-609; P13010 1-732) (complex)”, the stoichiometry N in experiment [1] turned out to be 2.
Consider “DNA-PK assembly (KU-DNA-DNA-PKcs) (from UniProt P78527 1-4128; P12956 1-609; P13010 1-732) (complex)”, for which the weight of the dimer in the two-state SAXS fit in experiment [2] came to 24%.

The values above are taken from article PMC8896507.
